The data set concerns the target CD31 (PECAM-1) (Homo sapiens) (UniProt P16284). The conditions noted are these: 5-(N-naphthylcarboxyamide)-2'-deoxyuridine (NapdU) replaces dT; SOMAmer; Flow cytometry: 1x PBS (pH 7.4), 2% FBS, 5 mM MgCl2, 0.2 mM dextran sulfate, room temperature, 15 min; aptamers heated at 95 C 5 min and cooled; Kd assay ….
Chain of UniProt P16284 (P16284 28-601): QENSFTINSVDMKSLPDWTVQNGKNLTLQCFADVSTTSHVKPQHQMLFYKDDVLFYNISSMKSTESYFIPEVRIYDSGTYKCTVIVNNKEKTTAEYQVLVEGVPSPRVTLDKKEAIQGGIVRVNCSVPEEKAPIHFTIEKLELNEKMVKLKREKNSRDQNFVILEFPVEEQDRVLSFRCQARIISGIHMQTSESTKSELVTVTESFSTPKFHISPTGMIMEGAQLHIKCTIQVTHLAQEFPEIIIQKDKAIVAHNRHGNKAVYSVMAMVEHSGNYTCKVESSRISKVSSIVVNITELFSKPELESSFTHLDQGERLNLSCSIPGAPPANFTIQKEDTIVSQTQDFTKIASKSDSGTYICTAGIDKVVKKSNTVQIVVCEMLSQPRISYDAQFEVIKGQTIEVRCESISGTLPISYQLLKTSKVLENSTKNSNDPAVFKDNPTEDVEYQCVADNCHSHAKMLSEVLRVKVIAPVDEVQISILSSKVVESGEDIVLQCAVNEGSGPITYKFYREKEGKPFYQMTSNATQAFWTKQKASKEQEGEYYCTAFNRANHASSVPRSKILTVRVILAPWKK

Take “TCAGCCGCCAGCCAGTTCGUAGAGGAGGUACGUAAUGUCUGGGUAUACCCCGAUAAUUGACCAGAGCACCACAGAG [AT-1 (CD31 aptamer clone 1)]”: the Kd was determined as 2.28 nM.

The record behind these values is publication PMC4493074.
